Test results taken from patent publication US20200376119A1 (Hoffmann-La Roche, published 2020).

Biological target: T1, carcinoembryonic antigen (CEA) on MKN-45 tumor cells (human, UniProt P06731 35-702)
T1 sequence (looked up): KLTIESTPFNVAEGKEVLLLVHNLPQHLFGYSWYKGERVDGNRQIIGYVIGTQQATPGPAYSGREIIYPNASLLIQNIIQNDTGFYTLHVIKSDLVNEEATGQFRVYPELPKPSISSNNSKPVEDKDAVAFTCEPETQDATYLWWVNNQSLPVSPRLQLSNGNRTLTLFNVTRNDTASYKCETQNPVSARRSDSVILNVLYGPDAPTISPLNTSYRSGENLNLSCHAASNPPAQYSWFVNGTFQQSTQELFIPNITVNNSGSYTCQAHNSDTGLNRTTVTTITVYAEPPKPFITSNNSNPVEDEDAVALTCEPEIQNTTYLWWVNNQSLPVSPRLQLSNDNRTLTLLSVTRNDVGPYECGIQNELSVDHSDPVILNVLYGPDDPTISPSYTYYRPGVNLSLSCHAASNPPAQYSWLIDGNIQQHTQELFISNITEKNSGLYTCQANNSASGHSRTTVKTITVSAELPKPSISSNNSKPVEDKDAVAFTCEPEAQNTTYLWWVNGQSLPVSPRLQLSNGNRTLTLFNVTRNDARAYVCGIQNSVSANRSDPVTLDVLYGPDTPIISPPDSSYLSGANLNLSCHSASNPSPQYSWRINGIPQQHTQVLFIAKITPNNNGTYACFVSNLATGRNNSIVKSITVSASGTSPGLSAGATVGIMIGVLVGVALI
Experiment: cell-based or functional assay

B1: CEA TCB (bispecific antibody)
chain 1: QAVVTQEPSLTVSPGGTVTLTCGSSTGAVTTSNYANWVQEKPGQAFRGLIGGTNKRAPGTPARFSGSLLGGKAALTLSGAQPEDEAEYYCALWYSNLWVFGGGTKLTVLSSASTKGPSVFPLAPSSKSTSGGTAALGCLVKDYFPEPVTVSWNSGALTSGVHTFPAVLQSSGLYSLSSVVTVPSSSLGTQTYICNVNHKPSNTKVDKKVEPKSC
chain 2: not shown
chain 3: QVQLVQSGAEVKKPGASVKVSCKASGYTFTEFGMNWVRQAPGQGLEWMGWINTKTGEATYVEEFKGRVTFTTDTSTSTAYMELRSLRSDDTAVYYCARWDFAYYVEAMDYWGQGTTVTVSSASTKGPSVFPLAPSSKSTSGGTAALGCLVKDYFPEPVTVSWNSGALTSGVHTFPAVLQSSGLYSLSSVVTVPSSSLGTQTYICNVNHKPSNTKVDKKVEPKSCDKTHTCPPCPAPEAAGGPSVFLFPPKPKDTLMISRTPEVTCVVVDVSHEDPEVKFNWYVDGVEVHNAKTKPREEQYNSTYRVVSVLTVLHQDWLNGKEYKCKVSNKALGAPIEKTISKAKGQPREPQVCTLPPSRDELTKNQVSLSCAVKGFYPSDIAVEWESNGQPENNYKTTPPVLDSDGSFFLVSKLTVDKSRWQQGNVFSCSVMHEALHNHYTQKSLSLSPGK
chain 4: DIQMTQSPSSLSASVGDRVTITCKASAAVGTYVAWYQQKPGKAPKLLIYSASYRKRGVPSRFSGSGSGTDFTLTISSLQPEDFATYYCHQYYTYPLFTFGQGTKLEIKRTVAAPSVFIFPPSDEQLKSGTASVVCLLNNFYPREAKVQWKVDNALQSGNSQESVTEQDSKDSTYSLSSTLTLSKADYEKHKVYACEVTHQGLSSPVTKSFNRGEC
  EC50 of tumor cell killing (LDH release, MKN-45 cells with human PBMCs, E:T 10:1, 24 h): 0.615 nM
  EC50 of tumor cell killing (LDH release, MKN-45 cells with human PBMCs, E:T 10:1, 48 h): 0.362 nM
